Reference: publication doi:10.1101/2025.05.08.652968, “Molecular mechanism of exchange coupling in CLC chloride/proton antiporters” (bioRxiv, 2025)

Target: the molecule itself
Assay: cryo-EM structure; CLC-ec1 in Salipro (Saposin-A, POPE/POPG) nanoparticles, 10 mM Hepes, 150 mM NaCl, pH 7.5; C2 symmetry imposed

B1: CLC-ec1 (wild type) (natural protein, E. coli)
chain: MKTDTPSLETPQAARLRRRQLIRQLLERDKTPLAILFMAAVVGTLVGLAAVAFDKGVAWLQNQRMGALVHTADNYPLLLTVAFLCSAVLAMFGYFLVRKYAPEAGGSGIPEIEGALEDQRPVRWWRVLPVKFFGGLGTLGGGMVLGREGPTVQIGGNIGRMVLDIFRLKGDEARHTLLATGAAAGLAAAFNAPLAGILFIIEEMRPQFRYTLISIKAVFIGVIMSTIMYRIFNHEVALIDVGKLSDAPLNTLWLYLILGIIFGIFGPIFNKWVLGMQDLLHRVHGGNITKWVLMGGAIGGLCGLLGFVAPATSGGGFNLIPIATAGNFSMGMLVFIFVARVITTLLCFSSGAPGGIFAPMLALGTVLGTAFGMVAVELFPQYHLEAGTFAIAGMGALLAASIRAPLTGIILVLEMTDNYQLILPMIITGLGATLLAQFTGGKPLYSAILARTLAKQEAEQLARSK
notes: CLC-ec1, the E. coli CLC Cl-/H+ exchange transporter homolog; The eluate of the cobalt column was incubated with Endoproteinase Lys-C; Homodimer in the cryo-EM maps (C2 symmetry imposed); also called WT CLC-ec1; WT
  binding result: binds
